According to PMC10500007 (2023):
Residue numbers refer to the chain shown, from its start.

How the values were obtained:
[1] = target: T1, human integrin αvβ6 (soluble, construct not stated) (human, UniProt P06756 31-1048; P18564 22-709); assay: BLI
T1 chain 1: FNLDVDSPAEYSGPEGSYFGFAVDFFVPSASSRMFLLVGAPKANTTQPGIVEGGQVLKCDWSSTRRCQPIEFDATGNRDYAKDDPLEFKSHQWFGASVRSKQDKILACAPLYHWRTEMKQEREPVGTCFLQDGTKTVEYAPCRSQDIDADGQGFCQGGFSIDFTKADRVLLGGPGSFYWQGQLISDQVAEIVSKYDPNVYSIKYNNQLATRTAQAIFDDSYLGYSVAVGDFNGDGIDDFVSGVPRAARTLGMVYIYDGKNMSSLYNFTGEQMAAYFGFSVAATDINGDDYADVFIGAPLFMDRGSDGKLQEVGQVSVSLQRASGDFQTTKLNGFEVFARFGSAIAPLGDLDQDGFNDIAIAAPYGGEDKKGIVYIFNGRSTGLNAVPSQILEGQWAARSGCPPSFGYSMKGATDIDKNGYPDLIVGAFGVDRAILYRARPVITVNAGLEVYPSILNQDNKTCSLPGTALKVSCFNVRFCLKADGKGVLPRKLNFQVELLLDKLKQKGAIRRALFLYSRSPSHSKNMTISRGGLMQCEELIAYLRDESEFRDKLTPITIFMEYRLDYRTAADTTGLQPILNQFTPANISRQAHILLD
T1 chain 2: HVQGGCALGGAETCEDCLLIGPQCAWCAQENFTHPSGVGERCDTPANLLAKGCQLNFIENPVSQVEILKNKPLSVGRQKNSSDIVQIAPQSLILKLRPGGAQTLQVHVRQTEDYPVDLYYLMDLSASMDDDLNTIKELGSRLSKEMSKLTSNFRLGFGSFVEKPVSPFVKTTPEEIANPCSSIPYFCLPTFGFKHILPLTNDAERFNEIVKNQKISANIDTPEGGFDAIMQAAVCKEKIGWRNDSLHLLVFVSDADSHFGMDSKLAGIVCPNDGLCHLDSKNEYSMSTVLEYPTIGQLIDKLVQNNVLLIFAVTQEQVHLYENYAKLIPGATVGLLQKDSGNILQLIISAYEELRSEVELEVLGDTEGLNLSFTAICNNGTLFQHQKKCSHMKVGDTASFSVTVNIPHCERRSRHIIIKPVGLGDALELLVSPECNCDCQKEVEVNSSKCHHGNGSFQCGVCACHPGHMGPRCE

[2] = target: α8β1 (Homo sapiens); assay: BLI
Chain of α8β1 (Homo sapiens) (chain, as listed by the source, chain 1 of 2): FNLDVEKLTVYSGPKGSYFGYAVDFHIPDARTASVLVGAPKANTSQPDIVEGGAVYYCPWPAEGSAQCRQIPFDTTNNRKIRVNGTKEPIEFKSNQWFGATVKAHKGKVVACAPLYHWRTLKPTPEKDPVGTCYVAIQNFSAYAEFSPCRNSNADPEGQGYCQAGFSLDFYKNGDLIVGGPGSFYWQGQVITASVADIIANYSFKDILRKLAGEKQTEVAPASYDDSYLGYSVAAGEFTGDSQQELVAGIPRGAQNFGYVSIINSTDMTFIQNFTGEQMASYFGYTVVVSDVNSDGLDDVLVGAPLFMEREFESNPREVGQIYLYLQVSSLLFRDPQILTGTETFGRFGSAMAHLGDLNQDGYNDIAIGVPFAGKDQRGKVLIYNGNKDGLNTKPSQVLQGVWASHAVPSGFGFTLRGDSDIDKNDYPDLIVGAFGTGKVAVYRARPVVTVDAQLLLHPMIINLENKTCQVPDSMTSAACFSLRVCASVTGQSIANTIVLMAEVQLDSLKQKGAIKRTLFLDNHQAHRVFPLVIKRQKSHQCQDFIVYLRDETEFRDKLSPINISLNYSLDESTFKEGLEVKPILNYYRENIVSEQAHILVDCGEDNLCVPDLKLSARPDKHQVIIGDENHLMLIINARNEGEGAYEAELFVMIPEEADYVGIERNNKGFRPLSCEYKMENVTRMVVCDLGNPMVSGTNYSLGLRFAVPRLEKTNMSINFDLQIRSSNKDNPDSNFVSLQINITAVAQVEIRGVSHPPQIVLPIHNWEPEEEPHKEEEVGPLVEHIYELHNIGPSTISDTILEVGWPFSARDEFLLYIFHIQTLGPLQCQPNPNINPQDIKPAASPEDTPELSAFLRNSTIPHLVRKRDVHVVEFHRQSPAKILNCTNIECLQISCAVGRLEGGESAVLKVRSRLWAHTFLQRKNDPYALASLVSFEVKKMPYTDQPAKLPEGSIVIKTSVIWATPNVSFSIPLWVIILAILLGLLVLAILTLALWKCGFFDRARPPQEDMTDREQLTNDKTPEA
Chain of α8β1 (Homo sapiens) (chain, as listed by the source, chain 2 of 2): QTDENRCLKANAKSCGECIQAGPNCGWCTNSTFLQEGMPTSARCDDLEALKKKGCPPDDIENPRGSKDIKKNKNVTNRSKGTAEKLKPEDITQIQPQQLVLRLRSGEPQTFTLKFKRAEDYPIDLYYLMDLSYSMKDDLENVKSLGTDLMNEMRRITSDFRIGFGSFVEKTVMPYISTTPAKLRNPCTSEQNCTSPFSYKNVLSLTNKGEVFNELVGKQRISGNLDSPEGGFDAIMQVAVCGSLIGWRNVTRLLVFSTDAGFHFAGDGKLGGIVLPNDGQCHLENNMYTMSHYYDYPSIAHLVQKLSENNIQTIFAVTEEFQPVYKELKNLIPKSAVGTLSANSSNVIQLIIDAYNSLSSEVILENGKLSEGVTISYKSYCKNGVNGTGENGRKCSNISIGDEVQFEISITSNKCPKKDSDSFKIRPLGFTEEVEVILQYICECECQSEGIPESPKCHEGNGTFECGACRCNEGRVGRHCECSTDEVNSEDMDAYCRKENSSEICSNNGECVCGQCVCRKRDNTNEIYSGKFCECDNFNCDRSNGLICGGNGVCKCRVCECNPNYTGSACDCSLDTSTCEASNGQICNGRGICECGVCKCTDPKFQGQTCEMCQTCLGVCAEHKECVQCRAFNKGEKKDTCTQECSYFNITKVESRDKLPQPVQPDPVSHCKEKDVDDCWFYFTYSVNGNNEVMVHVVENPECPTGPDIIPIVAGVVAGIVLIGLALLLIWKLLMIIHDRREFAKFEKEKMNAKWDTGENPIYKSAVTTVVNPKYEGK

[3] = target: T2, αvβ5 (Homo sapiens); assay: BLI
T2 chain 1: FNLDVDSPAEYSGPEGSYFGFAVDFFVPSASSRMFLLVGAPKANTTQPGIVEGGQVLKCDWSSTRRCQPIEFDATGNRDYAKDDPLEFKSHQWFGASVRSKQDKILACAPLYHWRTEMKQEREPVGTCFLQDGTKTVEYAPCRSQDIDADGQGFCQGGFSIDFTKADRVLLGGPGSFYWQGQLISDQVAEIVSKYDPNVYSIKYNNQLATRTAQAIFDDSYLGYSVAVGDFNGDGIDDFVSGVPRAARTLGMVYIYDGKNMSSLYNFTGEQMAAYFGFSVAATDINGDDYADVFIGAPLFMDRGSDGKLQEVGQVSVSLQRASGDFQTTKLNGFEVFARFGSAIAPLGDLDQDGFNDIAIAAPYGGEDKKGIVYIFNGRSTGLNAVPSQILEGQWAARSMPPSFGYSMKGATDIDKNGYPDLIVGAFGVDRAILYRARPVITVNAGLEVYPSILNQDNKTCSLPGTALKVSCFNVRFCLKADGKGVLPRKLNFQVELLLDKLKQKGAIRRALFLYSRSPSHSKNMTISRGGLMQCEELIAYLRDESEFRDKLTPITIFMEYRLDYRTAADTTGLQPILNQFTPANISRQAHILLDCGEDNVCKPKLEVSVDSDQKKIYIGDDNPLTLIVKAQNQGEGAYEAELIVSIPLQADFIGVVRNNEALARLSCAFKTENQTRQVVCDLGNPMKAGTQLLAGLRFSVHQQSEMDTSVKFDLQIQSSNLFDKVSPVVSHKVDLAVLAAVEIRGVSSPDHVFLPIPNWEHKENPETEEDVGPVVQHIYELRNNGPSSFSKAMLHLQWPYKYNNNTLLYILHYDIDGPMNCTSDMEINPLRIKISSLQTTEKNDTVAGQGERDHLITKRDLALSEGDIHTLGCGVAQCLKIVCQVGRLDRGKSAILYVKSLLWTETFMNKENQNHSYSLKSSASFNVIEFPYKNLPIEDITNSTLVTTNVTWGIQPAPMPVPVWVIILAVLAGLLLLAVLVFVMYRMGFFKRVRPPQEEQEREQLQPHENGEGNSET
T2 chain 2: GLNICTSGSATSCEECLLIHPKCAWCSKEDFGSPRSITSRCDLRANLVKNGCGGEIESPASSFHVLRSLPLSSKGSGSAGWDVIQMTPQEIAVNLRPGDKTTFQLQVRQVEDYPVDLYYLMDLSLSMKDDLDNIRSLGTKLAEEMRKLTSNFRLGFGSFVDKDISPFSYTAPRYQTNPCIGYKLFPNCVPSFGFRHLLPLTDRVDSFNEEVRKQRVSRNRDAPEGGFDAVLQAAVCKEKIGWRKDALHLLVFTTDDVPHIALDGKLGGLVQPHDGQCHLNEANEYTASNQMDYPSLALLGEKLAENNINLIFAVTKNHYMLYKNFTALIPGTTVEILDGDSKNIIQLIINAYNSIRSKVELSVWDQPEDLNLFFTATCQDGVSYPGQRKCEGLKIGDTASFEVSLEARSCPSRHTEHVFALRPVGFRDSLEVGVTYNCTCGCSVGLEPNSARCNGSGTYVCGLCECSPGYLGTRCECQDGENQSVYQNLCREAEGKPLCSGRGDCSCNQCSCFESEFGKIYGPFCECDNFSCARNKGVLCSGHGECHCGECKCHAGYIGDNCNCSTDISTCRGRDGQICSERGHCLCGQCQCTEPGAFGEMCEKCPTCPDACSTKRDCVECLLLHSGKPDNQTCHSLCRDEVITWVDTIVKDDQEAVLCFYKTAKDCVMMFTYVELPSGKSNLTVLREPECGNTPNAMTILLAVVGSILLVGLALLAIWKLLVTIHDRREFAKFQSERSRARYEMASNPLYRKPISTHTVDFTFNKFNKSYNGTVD

[4] = target: T3, αvβ3 (Homo sapiens); assay: BLI
T3 chain 1: T2 chain 1
T3 chain 2: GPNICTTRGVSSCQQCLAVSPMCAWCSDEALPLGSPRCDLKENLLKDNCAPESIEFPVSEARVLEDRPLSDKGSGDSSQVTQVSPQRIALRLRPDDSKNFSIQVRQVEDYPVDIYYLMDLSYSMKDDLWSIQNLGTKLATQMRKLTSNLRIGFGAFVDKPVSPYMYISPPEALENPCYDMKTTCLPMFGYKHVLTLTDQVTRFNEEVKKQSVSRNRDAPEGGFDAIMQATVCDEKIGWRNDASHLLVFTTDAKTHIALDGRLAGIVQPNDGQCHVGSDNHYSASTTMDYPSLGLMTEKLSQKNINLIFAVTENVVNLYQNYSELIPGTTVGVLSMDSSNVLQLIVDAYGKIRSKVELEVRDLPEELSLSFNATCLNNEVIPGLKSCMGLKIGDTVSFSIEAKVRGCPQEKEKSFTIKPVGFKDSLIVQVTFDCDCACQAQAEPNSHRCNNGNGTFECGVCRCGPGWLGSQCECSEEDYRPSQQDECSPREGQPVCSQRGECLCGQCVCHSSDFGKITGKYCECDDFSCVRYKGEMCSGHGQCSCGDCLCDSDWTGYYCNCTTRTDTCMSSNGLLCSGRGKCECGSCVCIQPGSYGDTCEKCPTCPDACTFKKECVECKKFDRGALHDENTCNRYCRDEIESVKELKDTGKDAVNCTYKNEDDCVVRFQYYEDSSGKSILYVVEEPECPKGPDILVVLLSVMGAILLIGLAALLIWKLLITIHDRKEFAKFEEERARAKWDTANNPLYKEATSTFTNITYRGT

[5] = target: αIIbβ3 (Homo sapiens); assay: BLI
[6] = target: α5β1 (Homo sapiens); assay: BLI
Chain of α5β1 (Homo sapiens) (chain, as listed by the source, chain 1 of 2): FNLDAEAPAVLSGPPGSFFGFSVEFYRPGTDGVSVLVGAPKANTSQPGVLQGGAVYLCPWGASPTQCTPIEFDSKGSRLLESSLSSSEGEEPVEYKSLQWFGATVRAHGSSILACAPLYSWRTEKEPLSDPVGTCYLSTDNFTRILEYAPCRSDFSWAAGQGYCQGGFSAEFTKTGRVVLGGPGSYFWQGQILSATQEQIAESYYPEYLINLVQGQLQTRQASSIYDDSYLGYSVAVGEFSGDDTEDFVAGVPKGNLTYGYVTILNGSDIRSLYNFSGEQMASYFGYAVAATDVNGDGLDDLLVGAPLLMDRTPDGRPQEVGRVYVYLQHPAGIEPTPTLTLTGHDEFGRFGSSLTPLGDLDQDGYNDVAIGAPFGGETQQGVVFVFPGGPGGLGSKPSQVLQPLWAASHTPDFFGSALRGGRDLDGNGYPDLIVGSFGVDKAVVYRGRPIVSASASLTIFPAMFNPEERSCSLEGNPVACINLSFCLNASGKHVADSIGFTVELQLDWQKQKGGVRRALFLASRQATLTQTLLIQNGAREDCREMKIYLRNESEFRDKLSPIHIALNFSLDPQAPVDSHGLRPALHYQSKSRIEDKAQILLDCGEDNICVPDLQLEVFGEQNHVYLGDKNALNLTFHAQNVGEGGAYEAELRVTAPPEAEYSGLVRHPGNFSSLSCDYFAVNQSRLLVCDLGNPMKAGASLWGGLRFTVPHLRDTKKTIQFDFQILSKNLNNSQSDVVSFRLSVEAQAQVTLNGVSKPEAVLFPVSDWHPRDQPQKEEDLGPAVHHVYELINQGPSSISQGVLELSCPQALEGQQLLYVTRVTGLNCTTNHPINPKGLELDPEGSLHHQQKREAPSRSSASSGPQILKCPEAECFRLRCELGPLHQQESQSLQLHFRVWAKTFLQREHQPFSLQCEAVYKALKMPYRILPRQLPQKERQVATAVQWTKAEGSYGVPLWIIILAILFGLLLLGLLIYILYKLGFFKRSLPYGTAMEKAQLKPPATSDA
Chain of α5β1 (Homo sapiens) (chain, as listed by the source, chain 2 of 2): as the sequence (chain, as listed by the source, chain 2 of 2) above

[7] = target: αvβ1 (Homo sapiens); assay: BLI
Chain of αvβ1 (Homo sapiens) (chain, as listed by the source, chain 2 of 2, one chain of several): as the sequence (chain, as listed by the source, chain 2 of 2) above

[8] = target: recombinant human integrin αvβ6 headpiece (Expi293F) (human, UniProt P06756 31-429; P18564 130-371, I287C); assay: ELISA; competition with hLAP1
[9] = target: T4, human integrin αvβ8 (soluble, construct not stated) (human, UniProt P06756 31-1048; P26012 43-684); assay: BLI
T4 chain 1: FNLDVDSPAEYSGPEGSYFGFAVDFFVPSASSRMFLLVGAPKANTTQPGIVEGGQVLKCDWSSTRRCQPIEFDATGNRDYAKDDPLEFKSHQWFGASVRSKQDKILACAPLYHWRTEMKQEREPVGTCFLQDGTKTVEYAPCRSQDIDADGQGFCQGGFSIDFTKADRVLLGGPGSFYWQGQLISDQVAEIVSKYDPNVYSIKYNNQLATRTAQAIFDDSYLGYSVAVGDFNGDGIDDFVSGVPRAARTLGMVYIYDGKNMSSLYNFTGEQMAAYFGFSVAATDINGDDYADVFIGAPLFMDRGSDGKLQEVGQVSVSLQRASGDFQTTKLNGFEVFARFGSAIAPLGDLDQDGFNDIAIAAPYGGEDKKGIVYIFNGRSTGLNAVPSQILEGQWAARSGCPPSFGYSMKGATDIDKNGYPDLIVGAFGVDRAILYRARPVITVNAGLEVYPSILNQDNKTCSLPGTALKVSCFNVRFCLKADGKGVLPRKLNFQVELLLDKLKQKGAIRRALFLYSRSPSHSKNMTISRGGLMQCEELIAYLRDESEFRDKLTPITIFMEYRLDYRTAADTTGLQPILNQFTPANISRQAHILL
T4 chain 2: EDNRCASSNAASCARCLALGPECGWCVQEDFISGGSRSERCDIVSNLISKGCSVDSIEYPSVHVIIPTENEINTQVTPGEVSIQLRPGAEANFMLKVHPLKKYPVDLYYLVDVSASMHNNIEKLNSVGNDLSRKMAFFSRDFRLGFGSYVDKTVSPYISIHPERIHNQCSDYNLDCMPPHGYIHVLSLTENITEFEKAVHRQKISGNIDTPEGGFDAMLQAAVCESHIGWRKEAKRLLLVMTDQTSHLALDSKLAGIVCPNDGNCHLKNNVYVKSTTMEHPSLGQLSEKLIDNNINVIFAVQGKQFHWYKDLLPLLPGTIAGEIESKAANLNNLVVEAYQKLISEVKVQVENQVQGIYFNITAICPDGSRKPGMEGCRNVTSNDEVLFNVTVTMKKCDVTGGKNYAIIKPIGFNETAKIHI

[10] = target: recombinant human integrin αvβ8 headpiece (Expi293F) (human, UniProt P06756); assay: ELISA; competition with hLAP1
Chain of recombinant human integrin αvβ8 headpiece (Expi293F) (P06756 whole entry, looked up): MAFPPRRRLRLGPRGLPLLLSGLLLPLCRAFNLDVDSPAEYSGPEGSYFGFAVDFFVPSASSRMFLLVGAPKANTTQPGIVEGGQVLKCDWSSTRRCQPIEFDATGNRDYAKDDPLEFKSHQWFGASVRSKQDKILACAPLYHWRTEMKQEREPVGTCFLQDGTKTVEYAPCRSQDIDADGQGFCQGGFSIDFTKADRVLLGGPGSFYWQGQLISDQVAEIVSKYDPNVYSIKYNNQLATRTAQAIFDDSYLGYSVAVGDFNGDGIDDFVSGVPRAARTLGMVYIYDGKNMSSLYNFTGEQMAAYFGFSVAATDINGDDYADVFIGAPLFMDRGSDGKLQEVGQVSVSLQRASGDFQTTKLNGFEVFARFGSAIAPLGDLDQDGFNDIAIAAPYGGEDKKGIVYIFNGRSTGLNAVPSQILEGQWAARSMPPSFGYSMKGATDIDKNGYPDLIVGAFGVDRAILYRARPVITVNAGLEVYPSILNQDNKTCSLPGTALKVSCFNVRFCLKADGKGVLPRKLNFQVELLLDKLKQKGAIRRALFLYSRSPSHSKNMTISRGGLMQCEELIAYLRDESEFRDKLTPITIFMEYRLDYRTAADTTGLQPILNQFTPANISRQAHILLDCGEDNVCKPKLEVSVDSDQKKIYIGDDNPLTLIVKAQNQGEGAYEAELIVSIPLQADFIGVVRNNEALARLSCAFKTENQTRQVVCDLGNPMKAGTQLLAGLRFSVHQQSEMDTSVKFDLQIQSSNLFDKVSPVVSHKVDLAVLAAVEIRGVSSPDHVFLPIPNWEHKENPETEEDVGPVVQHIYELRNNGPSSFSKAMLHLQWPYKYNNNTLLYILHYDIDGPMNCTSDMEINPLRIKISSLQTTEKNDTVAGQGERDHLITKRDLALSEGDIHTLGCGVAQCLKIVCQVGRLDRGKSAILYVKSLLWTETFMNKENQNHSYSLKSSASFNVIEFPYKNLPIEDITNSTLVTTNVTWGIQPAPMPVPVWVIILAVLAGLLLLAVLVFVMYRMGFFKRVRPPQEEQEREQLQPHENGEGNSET

B1: MAVI (protein)
chain: TKCVVRFNFRGDMAVIALKAVKDHLKKEGPHWNITTHNDDEVYLVVRGIHESDAKRIAKWVESTIPGISVETQCD
modifications: N/C-terminal disulfide staple (Cys3-Cys74); B8_BP_dslf with MAVY motif changed to MAVI
Kd [1]: 1.2 nM

B2: MATI (protein)
chain: B1 chain with V15T
modifications: N/C-terminal disulfide staple (Cys3-Cys74); B8_BP_dslf with MAVY motif changed to MATI
Kd [1]: 1.2 nM

B3: B8_BP-LATY (designed binder)
chain: B1 chain with M13L, V15T, I16Y
modifications: full-length mature chains taken as on K562 cells; soluble ectodomain possible for BLI; divalent cations, glycosylated
Kd [2]: > 1000 nM
Kd [3]: > 1000 nM
Kd [4]: > 1000 nM
Kd [5]: > 1000 nM
Kd [6]: > 1000 nM
Kd [7]: > 1000 nM

B4: B8_BP_dslf (designed binder)
chain: B1 chain with I16Y
Kd [1]: > 1000 nM
IC50 [8]: > 500 nM

B5: B8_BP-LATY (designed binder)
chain: B1 chain with M13L, V15T, I16Y
Kd [1]: > 500 nM

B6: B6_BP_dslf (designed binder)
chain: TKCVVRFVFRGDLAELMLRAVKDHLKKEGPHWNITSTNNGKELVVRGIHESDAKRIAKWVEKRFPRVHTETQCD
modifications: full-length mature chains taken as on K562 cells; soluble ectodomain possible for BLI; divalent cations, glycosylated
Kd [2]: > 200 nM
Kd [3]: > 200 nM
Kd [4]: > 200 nM
Kd [5]: > 200 nM
Kd [6]: > 200 nM
Kd [7]: > 200 nM

B7: B6_BP_dslf (designed binder)
chain: B6 chain
Kd [9]: 580 nM
Kd [1]: 0.11 nM
IC50 [10]: ~80 nM
